Measured values from publication PMC6265484, “Homodimerization regulates an endothelial specific signature of the SOX18 transcription factor”.

What was measured:
SOX18 full length [1] = target: T1, SOX18 full length (mouse, UniProt P43680 1-377); assay: fluorescence polarization; 2 mM Mg2+; FP: 30 mM HEPES pH 7.5, 100 mM KCl, 40 mM NaCl, 10 mM ammonium acetate, 10 mM guanidinium HCl, 2 mM MgCl2, 0.5 mM EDTA, 0.01% NP-40, room temp, 5 nM DNA, 5-150; details: protein: recombinant; tags: N-terminal HIS-GST; chain copies: 2; label: 5'-fluorescein; blunt
SOX18 full length [2] = target: T1, SOX18 full length; assay: fluorescence polarization; 2 mM Mg2+; maximum binding (highest mP); FP: 30 mM HEPES pH 7.5, 100 mM KCl, 40 mM NaCl, 10 mM ammonium acetate, 10 mM guanidinium HCl, 2 mM MgCl2, 0.5 mM EDTA, 0.01% NP-40, room temp, 5 nM DNA, 5-150; details: protein: recombinant; tags: N-terminal HIS-GST; chain copies: 2; label: 5'-fluorescein; blunt
SOX9-HMG = SOX9-HMG (UniProt Q04887 105-173); assay: EMSA; 50 uM Zn2+; two HMG bind; FP: 30 mM HEPES pH 7.5, 100 mM KCl, 40 mM NaCl, 10 mM ammonium acetate, 10 mM guanidinium HCl, 2 mM MgCl2, 0.5 mM EDTA, 0.01% NP-40, room temp, 5 nM DNA, 5-150; details: protein: recombinant; chain copies: 2; label: 5'-Cy5; blunt
SOX18-HMG (Sox18_79) = SOX18-HMG (Sox18_79) (mouse, UniProt P43680 77-155); assay: EMSA; 15 nM protein, 1 nM DNA, 50 uM Zn2+; two HMG bind; FP: 30 mM HEPES pH 7.5, 100 mM KCl, 40 mM NaCl, 10 mM ammonium acetate, 10 mM guanidinium HCl, 2 mM MgCl2, 0.5 mM EDTA, 0.01% NP-40, room temp, 5 nM DNA, 5-150; details: protein: recombinant; tags: pETG20A or pHisMBP vector; chain copies: 2; label: 5'-Cy5; blunt
Sequence of SOX18-HMG (Sox18_79) (P43680 77-155): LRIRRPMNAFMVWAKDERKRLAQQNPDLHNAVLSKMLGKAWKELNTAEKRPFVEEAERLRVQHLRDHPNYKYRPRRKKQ

T1 sequence (P43680 whole entry): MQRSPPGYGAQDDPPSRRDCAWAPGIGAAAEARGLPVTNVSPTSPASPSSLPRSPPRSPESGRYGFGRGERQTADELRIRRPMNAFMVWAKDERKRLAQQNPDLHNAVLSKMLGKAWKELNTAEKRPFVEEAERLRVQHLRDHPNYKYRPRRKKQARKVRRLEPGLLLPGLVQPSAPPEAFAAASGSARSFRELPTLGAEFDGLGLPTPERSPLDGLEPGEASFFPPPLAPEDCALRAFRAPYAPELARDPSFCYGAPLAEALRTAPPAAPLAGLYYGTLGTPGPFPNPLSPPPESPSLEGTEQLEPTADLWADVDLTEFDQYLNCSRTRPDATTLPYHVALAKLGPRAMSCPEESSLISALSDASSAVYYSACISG
Sequence of SOX9-HMG (Q04887 105-173): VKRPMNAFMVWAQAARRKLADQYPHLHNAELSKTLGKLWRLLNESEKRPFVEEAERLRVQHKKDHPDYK

B1: IR1 (FP) (dsDNA)
DNA 1: CGCCAGTAGGGCAACAATGATTGTTGCTTCCGGGGGC
DNA 2: GCCCCCGGAAGCAACAATCATTGTTGCCCTACTGGCG
binding signal (SOX18 full length [1]): ~0.5 occupancy relative to IR5

B2: IR5 (FP) (dsDNA)
DNA 1: CGCCAGTAGGAACAATGCGGCATTGTTTTCCGGGGGC
DNA 2: GCCCCCGGAAAACAATGCCGCATTGTTCCTACTGGCG
binding result (SOX18 full length [2]): binds

B3: IR5 (EMSA) (dsDNA)
DNA 1: B2 DNA 1
DNA 2: B2 DNA 2
binding result (SOX9-HMG): binds | binding result (SOX18-HMG (Sox18_79)): binds
